Test results reported in patent US20080008707A1, “Denatured collagen peptides and uses thereof” (Cell-Matrix, Inc., priority 2006, published 2008).
Square brackets hold non-standard residues; d marks the D form. Ends that are not written are not given here. Hyp = O=C(O)[C@@H]1C[C@@H](O)CN1

B1: synthetic peptide No. 15, GPPGPPG (SEQ ID NO: 32) (peptide)
peptide: GPXGPXG
modifications: contains hydroxyproline ('where P is hydroxyproline'); positions marked in the tables but lost in this text
B2: synthetic peptide No. 17, GPPGPPGP (SEQ ID NO: 31) (peptide)
peptide: GPXGPXGP
modifications: hydroxyproline at the P positions marked in Tables 13 and 14; marking lost in this text

Legend:
[1] = system: HUI77 binding to denatured collagen IV; experiment: Competition ELISA: synthetic peptides blocking HUI77 binding to heat denatured collagen IV; parameters: species or system human; settings: average of two studies
Procedure: (§1) The ELISA was conducted as follows: wells of a 96-well microtiter plate (Immulon, 4 HBX flat-bottomed, Thermo Electron Corporation, Waltham, Mass.) were coated with 100 μL/well of dn-collagen IV at 10 μg/mL in Phosphate Buffered Saline (PBS) overnight at 4° C. The plate was washed 3 times (3×) with PBS containing 0.05% (v/v) Tween-20 (PBST) using an automated plate washer.
(§2) The plate was blocked by adding 300 μL/well of 1% BSA (w/v) in PBS for 1 hour at 25° C. followed by washing 3× in PBST as above.
(§3) Solutions of D93 or HUI77 were prepared with various concentrations of peptide or antibody inhibitor and incubate for 15 minutes. D93 or HUI77 was prepared at 200 ng/mL in 1% BSA/PBS.
(§4) For antibody blocking studies using synthetic peptides: peptide inhibitor stock solutions were prepared at 2 mM, 0.2 mM, 0.02 mM, and 0.002 mM in 1% BSA/PBS. 500 μL of a 2 mM peptide solution in 1% BSA/PBS was prepared and diluted 1:10 in 500 μL a total of three times to make peptide inhibitor concentrations.
(§5) 200 μL of D93 or HUI77 at 200 ng/mL solution was combined with 200 μL of peptide or antibody inhibitor solution and incubated for 15 minutes at room temperature.
(§6) D93 or HUI77 with various concentrations of inhibitors (2 mM, 0.2 mM, 0.02 mM, and 0.002 mM) were added to microplate wells and incubated for 1 hour at 25° C. The plate was washed 3× in PBST as above.
(§7) To each microtiter plate well, 100 μL of diluted anti-human IgG or anti-mouse IgM conjugated to horseradish peroxidase (HRP) in PBST was added and incubated for one hour at 25° C.: (a) for D93: Goat anti-human IgG-HRP (Jackson ImmunoResearch, Catalog No. 109-035-088) was used at 1:20,000 and (b) for HUI77: Goat anti-mouse IgM-HRP was used at 1:4,000. Plates were washed 3× in PBST as above.
(§8) Tetramethylbenzidine (TMB) substrate (100 μL; Pierce Chemicals)) was added to wells and the plates were allowed to develop at room temperature for 15 minutes in the dark. Substrate development was stopped by adding 50 μL/well of 2N H2SO4. The microtiter […] plates were read at 450 nm within five minutes of adding the H2SO4. Reactivity was measured with a microplate reader (Molecular Devices, Sunnyvale, Calif.) at a wavelength of 450 nm and analyzed using SOFTMax® PRO4.0 (Molecular Devices). All samples were tested in triplicate.
(§9) Individual peptides with amino acid substitutions and deletions were also synthesized based on the primary and secondary peptide arrays. […] The inhibitory activity of the individual peptides was tested by ELISA as previously described to measure binding of D93 or HUI77 to denatured collagen where peptides and antibodies were prepared at a 2× concentration and pre-incubated for 15 minutes prior to adding to microtiter plates coated with dn-collagen.
(§10) 96-well plates were coated with 100 μL/well of denatured (dn) collagen IV at 10 μg/mL in phosphate buffered saline (PBS) overnight at 4° C. followed by washing the plates in an automated plate washer 3 times in PBS containing 0.05% (v/v) Tween-20 (PBST). Non-specific binding was prevented by blocking the wells by adding 300 μL/well of 1% bovine serum albumin (BSA) (w/v) in PBS for 1 hour (hr) at 25° C. The plates were washed as above.
(§11) Solutions of D93 and HUI77 antibodies were prepared with various concentrations of inhibitor and incubated for 15 minutes. Briefly, 20 mLs of D93 or HUI77 were prepared at 200 ng/mL in 1% BSA/PBS. Solutions of peptide inhibitors (2 mM, 0.2 mM, […]) were prepared in 1% BSA/PBS. Equal volumes of antibodies and peptide inhibitors were combined: 200 μL of D93 or HUI77 (200 ng/mL solution) with 200 μL of each peptide solution.
(§12) 100 μL/well of D93 or HUI77 at 100 ng/mL with various concentrations of inhibitors were added to the wells in triplicate and incubated for 1 hour at 25° C. The plates were washed as described above.
(§13) 100 μL/well of secondary horseradish peroxidase (HRP)-conjugated antibody in PBST was added to each well and incubated for 1 hour (hr) at 25° C. […]

[2] = system: D93 binding to human denatured-collagen IV; experiment: Competition ELISA: synthetic peptides blocking D93 binding to heat denatured collagen IV; settings: average of two studies, vs 1% BSA/PBS alone
Procedure: as §1, §2, §3, §4, §5, §6, §7, §8, §9, §10, §11, §12, §13

[3] = biological target: D93, recombinant humanized IgG1 kappa antibody targeting denatured-collagen; experiment: competition ELISA on coated human dn-collagen IV
Chain of D93, recombinant humanized IgG1 kappa antibody targeting denatured-collagen (heavy, as listed by the source, chain 1 of 2): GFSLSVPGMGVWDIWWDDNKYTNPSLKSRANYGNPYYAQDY
Chain of D93, recombinant humanized IgG1 kappa antibody targeting denatured-collagen (light, as listed by the source, chain 2 of 2): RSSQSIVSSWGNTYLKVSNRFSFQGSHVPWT

[4] = biological target: HUI77, murine IgM anti-denatured-collagen monoclonal antibody; experiment: competition ELISA on coated dn-collagen IV
[5] = peptide inhibitor concentration 10 μM
[6] = peptide inhibitor concentration 100 μM
[7] = peptide inhibitor concentration 1000 μM
[8] = peptide inhibitor concentration 1 μM

Row | Molecule | % INHIBITION OF BINDING OF HUI77 TO DENATURED COLLAGEN IV [1, 5] [%] | % INHIBITION OF BINDING OF HUI77 TO DENATURED COLLAGEN IV [1, 6] [%] | % INHIBITION OF BINDING OF HUI77 TO DENATURED COLLAGEN IV [1, 7] [%] | % INHIBITION OF BINDING OF D93 TO HUMAN DENATURED-COLLAGEN IV [2, 8] [%] | % INHIBITION OF BINDING OF D93 TO HUMAN DENATURED-COLLAGEN IV [2, 5] [%] | % INHIBITION OF BINDING OF D93 TO HUMAN DENATURED-COLLAGEN IV [2, 6] [%] | % INHIBITION OF BINDING OF D93 TO HUMAN DENATURED-COLLAGEN IV [2, 7] [%] | % inhibition of D93 binding to dn-collagen IV, peptide 1 µM [3] [%] | % inhibition of D93 binding to dn-collagen IV, peptide 10 µM [3] [%] | % inhibition of D93 binding to dn-collagen IV, peptide 100 µM [3] [%] | % inhibition of D93 binding to dn-collagen IV, peptide 1000 µM [3] [%] | % inhibition of HUI77 binding to dn-collagen IV, peptide 10 µM [4] [%] | % inhibition of HUI77 binding to dn-collagen IV, peptide 100 µM [4] [%] | % inhibition of HUI77 binding to dn-collagen IV, peptide 1000 µM [4] [%]
1 | PGPPGPPGP (PGP[Hyp]GP[Hyp]GP) [SEQ ID NO: 29] | 10.5 | 12.5 | 63 | 11.5 | 40.5 | 87.5 | 93.5 |  |  |  |  |  |  | 
2 | PGPPGPPGPY (PGP[Hyp]GP[Hyp]GPY) [SEQ ID NO: 28] | 7 | 16 | 86.5 | 33.5 | 83 | 93.5 | 93.5 |  |  |  |  |  |  | 
3 | synthetic peptide No. 21, GPPG (SEQ ID NO: 34) |  |  |  |  |  |  |  | 9.5 | 6.5 | 11 | 52 | 6.5 | 9 | 14
4 | L[Hyp]GF[Hyp]G [synthetic peptide No. 19, LPGFPG (SEQ ID NO: 23)] |  |  |  |  |  |  |  | 10.5 | 6 | 8 | 32 | 7 | 14.5 | 75
5 | LPGFPGC (also: hydroxyproline marking, if any, lost) [synthetic peptide No. 9, LPGFPGC (SEQ ID NO: 37)] |  |  |  |  |  |  |  | 8 | 3.5 | 1 | 6.5 | 7 | 7.5 | 8.5
6 | LPGPPGPPG (also: hydroxyproline at marked P positions, if any, marking lost) [synthetic peptide No. 18, … (SEQ ID NO: 22)] |  |  |  |  |  |  |  | 6 | 5 | 3 | 17.5 | 6.5 | 9 | 6
7 | B1 |  |  |  |  |  |  |  | 8 | 17 | 64 | 92.5 | 6 | 7.5 | 77
8 | B2 |  |  |  |  |  |  |  | 9.5 | 21 | 77 | 92.5 | 7.5 | 12 | 44
9 | L[Hyp]GL[Hyp]G [synthetic peptide No. 14, LPGLPG (SEQ ID NO: 25)] |  |  |  |  |  |  |  | 8 | 6.5 | 6.5 | 46.5 | 6 | 9.5 | 17.5
10 | L[Hyp]GT[Hyp]G [synthetic peptide No. 8, LPGTPG (SEQ ID NO: 27)] |  |  |  |  |  |  |  | 7 | 2 | 4.5 | 24 | 3.5 | 4.5 | 6
11 | PGP[Hyp]GP[Hyp]GP [synthetic peptide No. 1, … (SEQ ID NO: 29)] |  |  |  |  |  |  |  | 11.5 | 40.5 | 87.5 | 93.5 | 10.5 | 12.5 | 63
12 | PGP[Hyp]GP[Hyp]GPY [synthetic peptide No. 4, … (SEQ ID NO: 28)] |  |  |  |  |  |  |  | 33.5 | 83 | 93.5 | 93.5 | 7 | 16 | 86.5
13 | L[Hyp]GP[Hyp]G [synthetic peptide No. 16, LPGPPG (SEQ ID NO: 24)] |  |  |  |  |  |  |  | 6.5 | 12 | 52.5 | 90 | 3 | 8 | 64
14 | L[Hyp]GS[Hyp]G [synthetic peptide No. 10, LPGSPG (SEQ ID NO: 26)] |  |  |  |  |  |  |  | 9.5 | 3.5 | 2.5 | 13.5 | 8 | 10.5 | 8.5
